The data set “crystal structure” deals with the molecule itself. As to the kind of experiment: crystal structure.
The data set “AUC” deals with the molecule itself. Description: AUC.
The data set “AUC + SEC” deals with the molecule itself. Description: AUC + SEC.

Four proteins from paper doi:10.1101/2021.03.09.434456 (bioRxiv, 2021) can be followed below.

B1: mouse Kirrel3 D1 (domain or fragment)
chain: VYSFSQQPQDQVVVSGQPVTLLCAIPEYDGFVLWIKDGLALGVGRDLSSYPQYLVVGNHLSGEHHLKILRAELQDDAVYECQAIQAAIRSRPARLTVLVP
Consider B1, for which the binding result in the data set “crystal structure” was “binds”.

B2: mouse Kirrel2 WT ectodomain (domain or fragment, UniProt Q7TSU7 20-507, looked up)
chain: SPHFLQQPEDMVVLLGEEARLPCALGAYRGLVQWTKDGLALGGERDLPGWSRYWISGNSASGQHDLHIKPVELEDEASYECQASQAGLRSRPAQLHVMVPPEAPQVLGGPSVSLVAGVPGNLTCRSRGDSRPAPELLWFRDGIRLDGSSFHQTTLKDKATGTVENTLFLTPSSHDDGATLICRARSQALPTGRDTAVTLSLQYPPMVTLSAEPQTVQEGEKVTFLCQATAQPPVTGYRWAKGGSPVLGARGPRLEVVADATFLTEPVSCEVSNAVGSANRSTALEVLYGPILQAKPKSVSVDVGKDASFSCVWRGNPLPRITWTRMGGSQVLSSGPTLRLPSVALEDAGDYVCRAEPRRTGLGGGKAQARLTVNAPPVVTALQPAPAFLRGPARLQCVVFASPAPDSVVWSWDEGFLEAGSLGRFLVEAFPAPEVEGGQGPGLISVLHISGTQESDFTTGFNCSARNRLGEGRVQIHLGRRDLLPTVR
Broadly, the Kd is a measure of binding affinity in units of concentration. High values mean lower affinity, low ones higher affinity. Usually stoichiometry N stands for a count of units in the complex or per binding partner. One may read the koff as the first-order rate constant of dissociation. Turning to B2, in the data set “AUC”, the Kd came to 900 nM and the “stoichiometry N” value is 2. Also, the koff in “AUC + SEC” is over 0.001 s⁻¹.

B3: mouse Kirrel2 D1 (domain or fragment)
chain: PHFLQQPEDMVVLLGEEARLPCALGAYRGLVQWTKDGLALGGERDLPGWSRYWISGNSASGQHDLHIKPVELEDEASYECQASQAGLRSRPAQLHVMVP
As to B3, the binding result in “crystal structure” was “binds”.

B4: mouse Kirrel3 WT ectodomain (domain or fragment, UniProt Q8BR86 22-535, looked up)
chain: LQKRGCCLVLGYMAKDKFRRMNEGQVYSFSQQPQDQVVVSGQPVTLLCAIPEYDGFVLWIKDGLALGVGRDLSSYPQYLVVGNHLSGEHHLKILRAELQDDAVYECQAIQAAIRSRPARLTVLVPPDDPIILGGPVISLRAGDPLNLTCHADNAKPAASIIWLRKGEVINGATYSKTLLRDGKRESIVSTLFISPGDVENGQSIVCRATNKAIPGGKETSVTIDIQHPPLVNLSVEPQPVLEDNIVTFHCSAKANPAVTQYRWAKRGHIIKEASGELYRTTVDYTYFSEPVSCEVTNALGSTNLSRTVDVYFGPRMTSEPQSLLVDLGSDAVFSCAWIGNPSLTIVWMKRGSGVVLSNEKTLTLKSVRQEDAGKYVCRAVVPRVGAGEREVTLTVNGPPIISSTQTQHALHGEKGQIKCFIRSTPPPDRIAWSWKENVLESGTSGRYTVETVNTEEGVISTLTISNIVRADFQTIYNCTAWNSFGSDTEIIRLKEQGSEMKSGAGLEAESVPMA
Turning to B4, in the data set “AUC”, binding was put at a Kd of 210 nM and the “stoichiometry N” value amounted to 2. For the same protein, in the data set “AUC + SEC”, the koff is over 0.001 s⁻¹.
